Results as given in patent US10334848B2, “Methods and compositions for weed control using EPSPS polynucleotides” (Monsanto Technology LLC, priority 2014, dated 2019).

Key:
[1] = system: glyphosate-resistant Waterhemp (Amaranthus rudis); test: Sensitization of glyphosate-resistant Waterhemp to glyphosate by topical dsRNA trigger (Example 3); format: in vivo; details: 8 nmol trigger; glyphosate 1.5 lb/ac one day after; 14 DAT; compared to plants treated with glyphosate alone
Protocol: The efficacies of mid-sized polynucleotide trigger molecules comprising SEQ ID NOs: 3 and 4 or SEQ ID NOs: 5 and 6, were assessed in glyphosate-resistant Waterhemp (Amaranthus rudis) in relation to a 24-mer trigger comprising SEQ ID NOs: 7 and 8. dsRNA triggers comprising polynucleotide sequences of SEQ ID NOs: 3 and 4, SEQ ID NOs: 5 and 6, and SEQ ID NOs: 7 and 8 were produced and the triggers were each formulated with 0.5% SILWET® L-77, 2% AMS, and 20 mM phosphate buffer to a concentration of 8 nmol. The trigger formulations were then topically applied to the leaves of glyphosate-resistant Waterhemp. Control plants were either untreated or treated with a solution of 0.5% SILWET® L-77, 2% AMS, and 20 mM phosphate buffer. One day after treatment with the trigger formulation, WEATHERMAX® brand glyphosate herbicide was applied to the plants at 1.5 lb/ac. Four replications were performed per treatment. The fresh weight of the plants was determined 14 DAT with EPSPS trigger polynucleotides and the fresh weight % compared to control plants (treated with WEATHERMAX® brand glyphosate herbicide alone) was calculated.

[2] = system: glyphosate-resistant Waterhemp plants (“WH13”); details: stated as known; cited from earlier work
[3] = system: glyphosate-resistant Amaranthus palmeri plants (“R-22”); details: stated as known; cited from earlier work
[4] = system: glyphosate-resistant Amaranthus palmeri plants (“R-22”); test: Sensitization of glyphosate-resistant Palmer amaranth to glyphosate by topical dsRNA trigger, then WEATHERMAX glyphosate; format: in vivo; details: glyphosate 1.5 lb/ac one day after, four replications
Protocol: Double stranded RNA (dsRNA) triggers comprising polynucleotide sequences of SEQ ID NOs: 3 and 4, SEQ ID NOs: 5 and 6, and SEQ ID NOs: 7 and 8 were produced and the triggers were formulated with 0.5% SILWET® L-77, 2% AMS, and 20 mM phosphate buffer to the desired concentration. The trigger formulations were then topically applied to the leaves of glyphosate-resistant Amaranthus palmeri plants (“R-22”). Control plants were either untreated or treated with the 0.5% SILWET® L-77, 2% AMS, and 20 mM phosphate buffer solution. One day after treatment, WEATHERMAX® brand glyphosate herbicide (RU Wmax, Monsanto, St Louis, Mo.) was applied to the plants at 1.5 lb/ac. 11 days after treatment (DAT) with EPSPS trigger polynucleotides the percent growth reduction of the dsRNA treated plants was assessed relative to untreated control plants by visual score. At 14 DAT the fresh weight of the dsRNA treated and control plants were determined. Four replications were performed per treatment. […] See also FIG. 1.

EPSPS mRNA = EPSPS mRNA reduction in Palmer protoplasts; format: cell-based; details: 6 ug dose of dsRNA trigger; Amaranthus palmeri protoplasts; FIG. 2
Protocol: The activities of mid-sized bioactive polynucleotide trigger molecules corresponding to SEQ ID NOs: 3 and 4 or SEQ ID NOs: 5 and 6 were assessed in Amaranthus palmeri protoplasts. A 6 ug dose of each dsRNA trigger (SEQ ID NO 3/4 or SEQ ID NO 5/6) was added to Amaranthus palmeri protoplasts.

[5] = system: glyphosate-resistant Waterhemp plants (“WH13”); test: Tiling of EPSPS cDNA: dsRNA trigger testing with glyphosate, fresh weight (Example 7, FIG. 4); format: in vivo; details: 8 nmol trigger, glyphosate 1.5 lb/ac one day after, 14 days after treatment, three replications
Protocol: The EPSPS cDNA of SEQ ID NO: 1 was tiled across the entire length of the cDNA to identify target sequences for bioactive trigger polynucleotides covering as shown in Table 5. The target nucleotide sequence were chosen to be approximately 47-62 bp in length. Bioactive trigger polynucleotides comprising a nucleotide sequence having at least 85% identity or complementarity to SEQ ID NOs: 36-66 were tested for the ability to sensitize glyphosate-resistant Waterhemp to glyphosate.
Double stranded RNA (dsRNA) triggers comprising polynucleotide sequences corresponding to SEQ ID NOs: 36-62 were produced and the bioactive trigger polynucleotides were formulated with 0.5% SILWET® L-77, 2% AMS, and 20 mM phosphate buffer to a final concentration of 8 nmol. The trigger formulations were then topically applied to the leaves of glyphosate-resistant Waterhemp plants (“WH13”). Control plants were either untreated or treated with the formulation 0.5% SILWET® L-77, 2% AMS, and 20 mM phosphate “buffer” solution. Additionally dsRNA comprising SEQ ID NOs: 7 and 8 (24-mer EPSPS trigger) was applied as a control. One day after treatment, WEATHERMAX® brand glyphosate herbicide (RU Wmax, Monsanto, St Louis, Mo.) was applied to the plants at 1.5 lb/ac.
Three replications were performed per treatment.

[6] = system: glyphosate-resistant Waterhemp plants (“WH13”); test: Sensitization of glyphosate-resistant Waterhemp WH13 to glyphosate, 2-16 nmol trigger (Example 5, FIG. 3); format: in vivo; details: 2, 4, 8 or 16 nmol trigger, glyphosate 1.5 lb/ac one day after, plants at 14 days after treatment
Protocol: The efficacies of mid-sized bioactive polynucleotide trigger molecules
Double stranded RNA (dsRNA) triggers comprising polynucleotide sequences of SEQ ID NOs: 3 and 4, SEQ ID NOs: 5 and 6, and SEQ ID NOs: 7 and 8 were produced and the bioactive trigger polynucleotides were formulated with 0.5% SILWET® L-77, 2% AMS, and 20 mM phosphate buffer to a concentration of 2 nmol, 4 nmol, 8 nmol or 16 nmol. The trigger formulations were then topically applied to the leaves of glyphosate-resistant Waterhemp plants (“WH13”). Control plants were either untreated or treated with the 0.5% SILWET® L-77, 2% AMS, and 20 mM phosphate buffer solution. One day after treatment, WEATHERMAX® brand glyphosate herbicide (RU Wmax, Monsanto, St Louis, Mo.) was applied to the plants at 1.5 lb/ac. Four replications were performed per treatment.

| Molecule | % Control Fresh wt. average [1] [%] | sensitization of glyphosate-resistant Waterhemp to glyphosate, prior knowledge (in words) [2] | sensitization of glyphosate-resistant Palmer amaranth to glyphosate, prior knowledge (in words) [3] | visual 11-DAT Average (percent growth reduction relative to untreated control plants by visual score) ([4]; 2 nmole trigger) [%] | Fresh weight 14-DAT Average ([4]; 2 nmole trigger) | visual 11-DAT Average (percent growth reduction relative to untreated control plants by visual score) ([4]; 4 nmole trigger) [%] | Fresh weight 14-DAT Average ([4]; 4 nmole trigger) | visual 11-DAT Average (percent growth reduction relative to untreated control plants by visual score) ([4]; 8 nmole trigger) [%] | Fresh weight 14-DAT Average ([4]; 8 nmole trigger) | visual 11-DAT Average (percent growth reduction relative to untreated control plants by visual score) ([4]; 16 nmole trigger) [%] | Fresh weight 14-DAT Average ([4]; 16 nmole trigger) | EPSPS mRNA reduction vs. control (EPSPS mRNA) [%] | efficacy in sensitizing glyphosate-resistant Waterhemp to glyphosate (in words, from fresh weight) [5] | sensitization of glyphosate-resistant Waterhemp plants to glyphosate (in words) [6] |
| --- | --- | --- | --- | --- | --- | --- | --- | --- | --- | --- | --- | --- | --- | --- |
| SEQ ID NO 7/8: dsRNA 24mer EPSPS Trigger (SEQ ID NO 7) and Reverse Complement (SEQ ID NO 8), known to sensitize glyphosate-resistant weeds; control (sense AUGCCAGAUGUUGCUAUGACUCUU; antisense AAGAGUCAUAGCAACAUCUGGCAU; listed as RNA, chemistry not given here) [reference compound] | 85 | known to sensitize glyphosate-resistant Waterhemp to glyphosate | known to sensitize glyphosate-resistant Palmer amaranth to glyphosate | 47.5 | 19.0 | 88.8 | 95.3 | 90.0 | 91.8 | 85.8 | 93.7 |  |  |  |
| SEQ ID NO 3/4: dsRNA trigger: 50mer EPSPS Trigger (SEQ ID NO 3) and Reverse Complement (SEQ ID NO 4), positions 398-447 of Amaranthus palmeri EPSPS cDNA (nucleic acid, double-stranded RNA trigger, further chemistry not given here) sense: GAACUCUUGGUUUAAAAGUGGAGGAUGAUAGUACAGCCAAAAGGGCAGUC antisense: GACUGCCCUUUUGGCUGUACUAUCAUCCUCCACUUUUAAACCAAGAGUUC | 78 |  |  | 46.3 | 24.0 | 28.8 | 94.7 | 88.3 | 88.4 | 90.0 | 97.0 | 69 | good efficacy | sensitize glyphosate-resistant Waterhemp plants to glyphosate |
| SEQ ID NO 5/6: dsRNA trigger: 53mer EPSPS Trigger (SEQ ID NO 5) and Reverse Complement (SEQ ID NO 6), positions 1189-1241 of Amaranthus palmeri EPSPS cDNA (nucleic acid, double-stranded RNA trigger, further chemistry not given here) sense: GACGUCAACAUGAACAAAAUGCCAGAUGUUGCUAUGACUCUUGCAGUUGUUGC antisense: GCAACAACUGCAAGAGUCAUAGCAACAUCUGGCAUUUUGUUCAUGUUGACGUC | 83 |  |  | 48.8 | 18.2 | 41.3 | 94.0 | 93.8 | 96.2 | 81.3 | 90.7 | 84 | good efficacy | sensitize glyphosate-resistant Waterhemp plants to glyphosate |
